These results are taken from paper PMC3788043 (Journal of the American Society for Mass Spectrometry, 2013).

Series [1] concerns the molecule itself. The series is described as follows: cross-linking.
Series [2] concerns the target urease apoprotein (UreABC)3 (Klebsiella aerogenes, UniProt P18316 1-100; P18315 1-106; P18314 1-567). The series is described as follows: native MS.

Chain of urease apoprotein (UreABC)3 (P18316 whole entry, chain 1 of 3): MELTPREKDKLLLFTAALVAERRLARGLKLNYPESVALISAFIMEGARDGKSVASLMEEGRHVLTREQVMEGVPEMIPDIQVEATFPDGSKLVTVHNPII
Chain of urease apoprotein (UreABC)3 (P18315 whole entry, chain 2 of 3): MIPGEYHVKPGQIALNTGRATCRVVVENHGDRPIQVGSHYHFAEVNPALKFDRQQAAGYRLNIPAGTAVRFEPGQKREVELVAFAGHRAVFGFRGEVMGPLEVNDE
Chain of urease apoprotein (UreABC)3 (P18314 whole entry, chain 3 of 3): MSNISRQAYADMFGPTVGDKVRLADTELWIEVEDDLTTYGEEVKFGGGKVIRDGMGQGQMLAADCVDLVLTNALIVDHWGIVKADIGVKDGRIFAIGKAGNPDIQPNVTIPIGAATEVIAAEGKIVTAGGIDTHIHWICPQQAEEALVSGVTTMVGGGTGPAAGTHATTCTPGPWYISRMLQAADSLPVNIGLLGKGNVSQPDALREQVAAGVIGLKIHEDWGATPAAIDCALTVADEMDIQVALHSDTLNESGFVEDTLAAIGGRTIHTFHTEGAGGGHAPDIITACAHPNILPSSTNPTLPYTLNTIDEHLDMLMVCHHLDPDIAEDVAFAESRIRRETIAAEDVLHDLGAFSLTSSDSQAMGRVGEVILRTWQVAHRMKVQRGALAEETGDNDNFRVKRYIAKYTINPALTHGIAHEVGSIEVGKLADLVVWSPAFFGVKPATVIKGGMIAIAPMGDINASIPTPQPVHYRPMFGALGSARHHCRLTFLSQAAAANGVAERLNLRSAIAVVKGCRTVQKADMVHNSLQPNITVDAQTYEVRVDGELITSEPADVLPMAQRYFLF

B1: K165A variant of UreF (natural protein)
chain: MSTAEQRLRLMQLASSNLPVGGYSWSQGLEWAVEAGWVLDVAAFERWQRRQMTEGFFTVDLPLFARLYRACEQGDIAAAQRWTAYLLACRETRELREEERNRGAAFARLLSDWQPDCPPPWRSLCQQSQLAGMAWLGVRWRIALPEMALSLGYSWIESAVMAGVALVPFGQQAAQQLILRLCDHYAAEMPRALAAPDGDIGSATPLAAIASARHETQYSRLFRS
In the case of B1, the binding result in series [1] was “binds”.

B2: maltose binding protein fusion of UreD (MBP-UreD) (natural protein, Klebsiella aerogenes, UniProt Q09063 1-270, looked up)
chain: MLPPLKKGWQATLDLRFHQAGGKTVLASAQHVGPLTVQRPFYPEEETCHLYLLHPPGGIVGGDELTISAHLAPGCHTLITMPGASKFYRSSGAQALVRQQLTLAPQATLEWLPQDAIFFPGANARLFTTFHLCASSRLLAWDLLCLGRPVIGETFSHGTLSNRLEVWVDNEPLLVERLHLQEGELSSIAERPWVGTLLCYPATDALLDGVRDALAPLGLYAGASLTDRLLTVRFLSDDNLICQRVMRDVWQFLRPHLTGKSPVLPRIWLT
Turning to B2, the binding result in series [2] is “binds”.

B3: MBP-UreD:UreF (complex, Klebsiella aerogenes)
chain 1: MLPPLKKGWQATLDLRFHQAGGKTVLASAQHVGPLTVQRPFYPEEETCHLYLLHPPGGIVGGDELTISAHLAPGCHTLITMPGASKFYRSSGAQALVRQQLTLAPQATLEWLPQDAIFFPGANARLFTTFHLCASSRLLAWDLLCLGRPVIGETFSHGTLSNRLEVWVDNEPLLVERLHLQEGELSSIAERPWVGTLLCYPATDALLDGVRDALAPLGLYAGASLTDRLLTVRFLSDDNLICQRVMRDVWQFLRPHLTGKSPVLPRIWLT
chain 2: MSTAEQRLRLMQLASSNLPVGGYSWSQGLEWAVEAGWVLDVAAFERWQRRQMTEGFFTVDLPLFARLYRACEQGDIAAAQRWTAYLLACRETRELREEERNRGAAFARLLSDWQPDCPPPWRSLCQQSQLAGMAWLGVRWRIALPEMALSLGYSWIESAVMAGVKLVPFGQQAAQQLILRLCDHYAAEMPRALAAPDGDIGSATPLAAIASARHETQYSRLFRS
Take B3: in series [2], the binding result is “binds”.
